From IntAct's records for PubMed 11781573

B1: Erythropoietin receptor (Homo sapiens), P19235 (parent)
chain: MDHLGASLWPQVGSLCLLLAGAAWAPPPNLPDPKFESKAALLAARGPEELLCFTERLEDLVCFWEEAASAGVGPGNYSFSYQLEDEPWKLCRLHQAPTARGAVRFWCSLPTADTSSFVPLELRVTAASGAPRYHRVIHINEVVLLDAPVGLVARLADESGHVVLRWLPPPETPMTSHIRYEVDVSAGNGAGSVQRVEILEGRTECVLSNLRGRTRYTFAVRARMAEPSFGGFWSAWSEPVSLLTPSDLDPLILTLSLILVVILVLLTVLALLSHRRALKQKIWPGIPSPESEFEGLFTTHKGNFQLWLYQNDGCLWWSPCTPFTEDPPASLEVLSERCWGTMQAVEPGTDDEGPLLEPVGSEHAQDTYLVLDKWLLPRNPPSEDLPGPGGSVDIVAMDEGSEASSCSSALASKPSPEGASAASFEYTILDPSSQLLRPWTLCPELPPTPPHLKYLYLVVSDSGISTDYSSGDSQGAQGGLSDGPYSNPYENSLIPAAEPLPPSYVACS
B2: Erythropoietin receptor (Homo sapiens), P19235 (parent)
chain: B1 chain
partner: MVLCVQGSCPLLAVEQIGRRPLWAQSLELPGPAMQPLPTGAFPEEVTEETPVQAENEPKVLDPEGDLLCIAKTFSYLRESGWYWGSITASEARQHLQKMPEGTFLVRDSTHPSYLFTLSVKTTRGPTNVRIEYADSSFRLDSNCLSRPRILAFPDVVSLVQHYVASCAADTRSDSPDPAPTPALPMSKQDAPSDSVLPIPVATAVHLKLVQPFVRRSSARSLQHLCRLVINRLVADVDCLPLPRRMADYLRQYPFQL

Variants of: B1
Settings: with socs2_human SOCS2, O14508
Sequence of socs2_human SOCS2, O14508 (O14508 whole entry): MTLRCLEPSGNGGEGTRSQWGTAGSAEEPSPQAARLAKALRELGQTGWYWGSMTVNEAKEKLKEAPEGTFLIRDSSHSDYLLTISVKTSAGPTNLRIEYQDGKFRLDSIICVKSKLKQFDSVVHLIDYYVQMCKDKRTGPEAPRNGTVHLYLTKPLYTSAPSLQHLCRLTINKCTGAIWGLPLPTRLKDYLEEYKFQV

| effect of a mutation on the interaction | Variant |
| --- | --- |
| decreasing interaction | MDHLGASLWPQVGSLCLLLAGAAWAPPPNLPDPKFESKAALLAARGPEELLCFTERLEDLVCFWEEAASAGVGPGNYSFSYQLEDEPWKLCRLHQAPTARGAVRFWCSLPTADTSSFVPLELRVTAASGAPRYHRVIHINEVVLLDAPVGLVARLADESGHVVLRWLPPPETPMTSHIRYEVDVSAGNGAGSVQRVEILEGRTECVLSNLRGRTRYTFAVRARMAEPSFGGFWSAWSEPVSLLTPSDLDPLILTLSLILVVILVLLTVLALLSHRRALKQKIWPGIPSPESEFEGLFTTHKGNFQLWLYQNDGCLWWSPCTPFTEDPPASLEVLSERCWGTMQAVEPGTDDEGPLLEPVGSEHAQDTYLVLDKWLLPRNPPSEDLPGPGGSVDIVAMDEGSEASSCSSALASKPSPEGASAASFEFTILDPSSQLLRPWTLCPELPPTPPHLKYLYLVVSDSGISTDYSSGDSQGAQGGLSDGPYSNPYENSLIPAAEPLPPSYVACS [Y426F] |

Variants of: B2
Settings: with cish_mouse Cish

| effect of a mutation on the interaction | Variant |
| --- | --- |
| decreasing interaction | MDHLGASLWPQVGSLCLLLAGAAWAPPPNLPDPKFESKAALLAARGPEELLCFTERLEDLVCFWEEAASAGVGPGNYSFSYQLEDEPWKLCRLHQAPTARGAVRFWCSLPTADTSSFVPLELRVTAASGAPRYHRVIHINEVVLLDAPVGLVARLADESGHVVLRWLPPPETPMTSHIRYEVDVSAGNGAGSVQRVEILEGRTECVLSNLRGRTRYTFAVRARMAEPSFGGFWSAWSEPVSLLTPSDLDPLILTLSLILVVILVLLTVLALLSHRRALKQKIWPGIPSPESEFEGLFTTHKGNFQLWLYQNDGCLWWSPCTPFTEDPPASLEVLSERCWGTMQAVEPGTDDEGPLLEPVGSEHAQDTYLVLDKWLLPRNPPSEDLPGPGGSVDIVAMDEGSEASSCSSALASKPSPEGASAASFEFTILDPSSQLLRPWTLCPELPPTPPHLKYLYLVVSDSGISTDYSSGDSQGAQGGLSDGPYSNPYENSLIPAAEPLPPSYVACS [Y426F] |
